Residue numbers refer to the chain shown, from its start. Numbers in names are those of the source.
B1: Ipilimumab L31 Ser to Cys (antibody, V domains shown)
VH: QVQLVESGGGVVQPGRSLRLSCAASGFTFSSYTMHWVRQAPGKGLEWVTFISYDGNNKYYADSVKGRFTISRDNSKNTLYLQMNSLRAEDTAIYYCARTGWLGPFDYWGQGTLVTVSS
VL: not shown
modifications: chain 2 pos 32 (Kabat L31): introduced Cys carrying the conjugated group of the row (R4-1 or S47), written C
B2: Ipilimumab L33 Leu to Cys (antibody, V domains shown)
VH: B1 VH
VL: not shown
modifications: chain 2 pos 34 (Kabat L33): introduced Cys carrying the conjugated group of the row (R4-1 or S47), written C
B3: Ipilimumab L52 Phe to Cys (antibody, V domains shown)
VH: B1 VH
VL: not shown
modifications: chain 2 pos 53 (Kabat L52): introduced Cys carrying the conjugated group of the row (R4-1 or S47), written C
B4: Ipilimumab L34 Ala to Cys (antibody, V domains shown)
VH: B1 VH
VL: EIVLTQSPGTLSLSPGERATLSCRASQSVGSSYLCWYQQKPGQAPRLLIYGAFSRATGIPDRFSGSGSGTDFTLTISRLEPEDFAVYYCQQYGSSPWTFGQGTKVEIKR
modifications: chain 2 pos 35 (Kabat L34): introduced Cys carrying the conjugated group of the row (R4-1 or S47), written C
B5: Ipilimumab L51 Ala to Cys (antibody, V domains shown)
VH: B1 VH
VL: not shown
modifications: chain 2 pos 52 (Kabat L51): introduced Cys carrying the conjugated group of the row (R4-1 or S47), written C
B6: Ipilimumab L50 Gly to Cys (antibody, V domains shown)
VH: B1 VH
VL: not shown
modifications: chain 2 pos 51 (Kabat L50): introduced Cys carrying the conjugated group of the row (R4-1, R4-3 or S47), written C
B7: anti-PD-1 antibody 2 light chain T56C-R4-5 (antibody, human IgG4 S228P, kappa, V domains shown)
VH: QVQLVESGGGVVQPGRSLRLDCKASGITFSNSGMHWVRQAPGKGLEWVAVIWYDGSKRYYADSVKGRFTISRDNSKNTLFLQMNSLRAEDTAVYYCATNDDYWGQGTLVTVSS
VL: EIVLTQSPATLSLSPGERATLSCRASQSVSSYLAWYQQKPGQAPRLLIYDASNRACGIPARFSGSGSGTDFTLTISSLEPEDFAVYYCQQSSNWPRTFGQGTKVEIKR
modifications: R4-5 on Cys 56
B8: anti-PD-1 antibody 2 light chain A25C-R4-5 (antibody, human IgG4 S228P, kappa, V domains shown)
VH: B7 VH
VL: B7 VL with A25C, C56T
modifications: R4-5 on Cys 25
B9: anti-PD-1 antibody 2 light chain Y32C-R4-1 (antibody, human IgG4 S228P, kappa, V domains shown)
VH: B7 VH
VL: B7 VL with Y32C, C56T
modifications: R4-1 on Cys 32
B10: anti-CTLA-4 antibody heavy chain D106C (antibody, human IgG1, kappa, V domains shown)
VH: B1 VH with D106C
VL: not shown
B11: anti-CTLA-4 antibody heavy chain K65C (antibody, human IgG1, kappa, V domains shown)
VH: B1 VH with K65C
VL: not shown
B12: anti-CTLA-4 antibody heavy chain Y59C (antibody, human IgG1, kappa, V domains shown)
VH: B1 VH with Y59C
VL: not shown
B13: anti-CTLA-4 antibody heavy chain Y60C (antibody, human IgG1, kappa, V domains shown)
VH: B1 VH with Y60C
VL: not shown
B14: anti-CTLA-4 antibody heavy chain Y53C (antibody, human IgG1, kappa, V domains shown)
VH: B1 VH with Y53C
VL: not shown
B15: anti-CTLA-4 antibody heavy chain K58C (antibody, human IgG1, kappa, V domains shown)
VH: B1 VH with K58C
VL: not shown

The binders below were run against T1, CTLA-4 (UniProt P16410 36-162, limits assumed) (assay: ELISA; R4-1 on the Cys).
T1 construct: also called CTLA-4 protein
T1 sequence (P16410 36-162 limits assumed): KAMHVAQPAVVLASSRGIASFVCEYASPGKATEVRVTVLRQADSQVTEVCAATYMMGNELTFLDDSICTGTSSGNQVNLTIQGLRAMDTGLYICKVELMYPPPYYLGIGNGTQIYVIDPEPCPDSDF

For B1, which Binding activity is on record?
The Binding activity was 99%.

With B2 as the binder, how does the Binding activity read?
The Binding activity was 95%.

How did the Binding activity turn out when B3 was run?
The Binding activity was 72%.

For B4, which Binding activity is on record?
Its Binding activity is 92%.

With B5 as the binder, how does the Binding activity read?
Its Binding activity is 92%.

For B6, which Binding activity is on record?
The Binding activity was 97%.

Each binder was assayed against PD-1 (UniProt Q15116 25-167, limits assumed) (assay: ELISA, conjugate vs WT antibody).
Sequence of PD-1 (Q15116 25-167 limits assumed): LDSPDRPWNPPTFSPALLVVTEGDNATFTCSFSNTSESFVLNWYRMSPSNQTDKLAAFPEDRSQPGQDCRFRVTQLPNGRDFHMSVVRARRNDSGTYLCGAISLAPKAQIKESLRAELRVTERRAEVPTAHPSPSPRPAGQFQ

Which “binding activity (% of WT)” value does the source give for B7 here?
The value was 89.4%.

B8 was tested. Which “binding activity (% of WT)” value did it give?
Its value is 87.2%.

B9 was tested. Which “binding activity (% of WT)” value did it give?
Its value is 25.6%.

Target: T1, CTLA-4
Assay: ELISA; R4-1 on the Cys
Remark: another data set of the same source

For B1, which Binding activity is on record?
Its Binding activity is 99%.

How did the Binding activity turn out when B2 was run?
The Binding activity was 95%.

How did the Binding activity turn out when B3 was run?
The Binding activity was 72%.

With B4 as the binder, how does the Binding activity read?
The Binding activity was 92%.

With B5 as the binder, how does the Binding activity read?
The Binding activity was 92%.

How did the Binding activity turn out when B6 was run?
Its Binding activity is 97%.

These binders were tested against T1, CTLA-4 (assay: ELISA; S47 on the Cys).

For B1, which “Activity after S47 (40 kD) blocking” value is on record?
Its value is 12%.

With B2 as the binder, how does the “Activity after S47 (40 kD) blocking” value read?
The value was 6%.

For B3, which “Activity after S47 (40 kD) blocking” value is on record?
The value was 16%.

B4 was tested. Which “Activity after S47 (40 kD) blocking” value did it give?
Its value is 11%.

For B5, which “Activity after S47 (40 kD) blocking” value is on record?
Its value is 25%.

B6 was tested. Which “Activity after S47 (40 kD) blocking” value did it give?
The value was 19%.

Each binder was assayed against CTLA-4 (UniProt P16410 36-162, limits assumed) (assay: ELISA, OD mutant/OD WT; ↓=less than 70%).
Target sequence in this assay (P16410 36-162 limits assumed): as the sequence (P16410 36-162 limits assumed) above

With B10 as the binder, how does the “binding activity vs wild type” value read?
Its value is under 70%.

How did the “binding activity vs wild type” value turn out when B11 was run?
Its value is under 70%.

With B12 as the binder, how does the “binding activity vs wild type” value read?
Its value is under 70%.

B13 was tested. Which “binding activity vs wild type” value did it give?
The value was under 70%.

How did the “binding activity vs wild type” value turn out when B14 was run?
Its value is under 70%.

B15 was tested. Which “binding activity vs wild type” value did it give?
The value was under 70%.
